Tests used:
[1] = target: MART-1 (ELA peptide) peptide on HLA-A*02:01 (human); assay: SPR, Biacore 3000; TCR amine-coupled to a CM5 chip, refolded ELA/HLA-A2 injected, 25 °C (Table 3, ELA); soluble, other
[2] = target: MART-1 (ELA peptide) peptide on HLA-A*02:01 (human); assay: SPR, Biacore 3000; TCR on the chip, refolded pMHC injected. The row prints the target as 'AAG (SEQ ID NO 5', but its ratio 395.8 is taken against the WT ELA value 9.5, and Table 3 gives 0.024 under ELA); soluble, other
[3] = target: MART-1 (ELA peptide) peptide on HLA-A*02:01 (human); assay: SPR, Biacore 3000; TCR amine-coupled to a CM5 chip, refolded pMHC injected, 25 °C, 1:1 Langmuir fit; soluble, other

Row | Substance | Kd [1] [µM] | Kd [2] [µM] | Kd [3] [µM]
1 | DMF5 TCR αD26Y/βL98W | 0.024 | 0.024 | 
2 | DMF5 TCR βL98W |  |  | 2.9
